Laboratory results: article PMC3309923

Target: Fc6 (recombinant human IgG1 Fc protein) (human)
Assay: SEC; analytical SEC of the Protein A purified reaction products on TSKgel SuperSW3000; native, non-reducing; 50 mM sodium phosphate pH 7.4, 300 mM NaCl, 25 °C

- stoichiometry N: 2
Substance: Fc6 (recombinant human IgG1 Fc protein) (domain or fragment)
